Values quoted from earlier work, collected in paper PMC3135726.

How the values were obtained:
[1] = molecular target: hnRNP A1 PY-NLS (Homo sapiens) (UniProt P09651)
[2] = molecular target: hnRNP M PY-NLS (Homo sapiens) (UniProt P52272)
PTHrP (Homo sapiens) = PTHrP (Homo sapiens) (UniProt P12272)
[3] = molecular target: Snurportin1 IBB (Homo sapiens) (UniProt O95149)
[4] = molecular target: Importin-α IBB (Homo sapiens) (UniProt P52292)

Importin-β, sequence (Q14974 whole entry): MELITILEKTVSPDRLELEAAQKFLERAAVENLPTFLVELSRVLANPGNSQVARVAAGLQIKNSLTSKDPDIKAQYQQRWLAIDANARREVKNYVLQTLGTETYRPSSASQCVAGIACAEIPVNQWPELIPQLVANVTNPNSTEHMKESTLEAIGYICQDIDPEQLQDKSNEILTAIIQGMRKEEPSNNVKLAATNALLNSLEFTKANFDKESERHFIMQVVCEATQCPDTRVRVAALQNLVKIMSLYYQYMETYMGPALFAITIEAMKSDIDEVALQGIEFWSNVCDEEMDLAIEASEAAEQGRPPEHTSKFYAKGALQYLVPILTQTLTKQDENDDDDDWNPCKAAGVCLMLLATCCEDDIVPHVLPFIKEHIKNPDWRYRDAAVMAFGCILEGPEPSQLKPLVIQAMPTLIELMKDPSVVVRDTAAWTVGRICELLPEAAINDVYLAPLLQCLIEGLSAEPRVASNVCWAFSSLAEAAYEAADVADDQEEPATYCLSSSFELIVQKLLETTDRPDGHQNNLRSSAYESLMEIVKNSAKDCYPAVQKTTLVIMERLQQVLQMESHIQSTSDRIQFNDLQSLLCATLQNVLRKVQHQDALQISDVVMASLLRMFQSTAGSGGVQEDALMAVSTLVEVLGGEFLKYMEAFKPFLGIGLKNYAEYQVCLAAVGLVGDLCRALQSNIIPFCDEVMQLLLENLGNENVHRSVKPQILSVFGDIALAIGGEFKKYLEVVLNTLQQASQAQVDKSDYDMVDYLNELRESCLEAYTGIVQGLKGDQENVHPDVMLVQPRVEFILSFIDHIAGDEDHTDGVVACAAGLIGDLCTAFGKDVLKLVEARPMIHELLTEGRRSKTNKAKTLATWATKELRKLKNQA
Kapβ2, sequence (Q92973 whole entry): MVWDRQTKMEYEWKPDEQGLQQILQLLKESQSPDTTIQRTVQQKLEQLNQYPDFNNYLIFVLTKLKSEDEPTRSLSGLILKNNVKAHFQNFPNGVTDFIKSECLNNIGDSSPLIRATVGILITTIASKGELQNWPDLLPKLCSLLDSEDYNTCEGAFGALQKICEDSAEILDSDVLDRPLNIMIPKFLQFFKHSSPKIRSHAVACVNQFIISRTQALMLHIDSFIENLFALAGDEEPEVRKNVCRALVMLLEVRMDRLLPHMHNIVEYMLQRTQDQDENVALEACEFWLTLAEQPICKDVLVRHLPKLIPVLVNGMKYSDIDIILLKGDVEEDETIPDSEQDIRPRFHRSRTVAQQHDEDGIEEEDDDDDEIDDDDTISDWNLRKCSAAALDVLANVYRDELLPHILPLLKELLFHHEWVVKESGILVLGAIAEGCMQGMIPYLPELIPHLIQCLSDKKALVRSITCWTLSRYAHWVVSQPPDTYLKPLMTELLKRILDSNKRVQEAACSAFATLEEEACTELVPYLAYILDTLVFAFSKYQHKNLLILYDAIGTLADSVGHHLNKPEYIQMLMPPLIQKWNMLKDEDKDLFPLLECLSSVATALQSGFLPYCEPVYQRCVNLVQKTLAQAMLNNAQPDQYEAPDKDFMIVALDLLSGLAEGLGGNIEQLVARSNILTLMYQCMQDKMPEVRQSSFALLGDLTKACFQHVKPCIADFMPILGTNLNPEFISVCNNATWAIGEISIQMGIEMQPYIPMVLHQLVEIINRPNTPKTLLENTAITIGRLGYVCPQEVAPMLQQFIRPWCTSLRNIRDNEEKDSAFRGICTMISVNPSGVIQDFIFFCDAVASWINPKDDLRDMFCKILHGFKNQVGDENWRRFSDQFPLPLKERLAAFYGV
hnRNP A1 PY-NLS (Homo sapiens), sequence (P09651 320-357): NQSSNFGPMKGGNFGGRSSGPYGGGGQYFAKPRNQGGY
hnRNP M PY-NLS (Homo sapiens), sequence (P52272 41-70): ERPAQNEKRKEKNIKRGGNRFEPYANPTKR
Snurportin1 IBB (Homo sapiens), sequence (O95149 8-76): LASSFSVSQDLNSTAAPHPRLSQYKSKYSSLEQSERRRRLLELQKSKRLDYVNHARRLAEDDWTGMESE
PTHrP (Homo sapiens), sequence (P12272 37-72): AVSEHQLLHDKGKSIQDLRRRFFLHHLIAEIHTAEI

Row | Kd [1] [nM] | Kd [2] [nM] | Kd (PTHrP (Homo sapiens)) [nM] | Kd [3] [nM] | Kd [4] [nM] | Substance
1 | 42 | 10 |  |  |  | Kapβ2 (from UniProt Q92973)
2 |  |  | 2 | 2 | 2 | Importin-β (from UniProt Q14974)
